Measured values published in PMC7437997, “Mechanistic insights into Lhr helicase function in DNA repair”.

Target: Lhr (archaeal Lhr, Mth1802) (Methanothermobacter thermautotrophicus …, UniProt O27830 1-862)
Assay: EMSA; no ATP; 100 nM Lhr, 10 nM DNA; EMSA: buffer HB (20 mM Tris-HCl pH 7.5, 2 mM DTT, 100 µg/ml BSA, 7% glycerol), room temperature, 10 nM DNA, 100 nM Lhr, +/- ATP and MgCl2, 5% acrylamide TBE gel; smFRET: 1 µM Lhr, RT or 45°C
Settings: protein: recombinant; tags: none stated (pET22b via NdeI/EcoRI, pEB352; no tag purification); label: ATTO 532 (green); partial fork 1:3 parental 24 bp, 3:4 leading arm 25 bp; S18[1-26] single-stranded; 1 nt 5' overhang on S20

Lhr (archaeal Lhr, Mth1802), sequence (O27830 whole entry): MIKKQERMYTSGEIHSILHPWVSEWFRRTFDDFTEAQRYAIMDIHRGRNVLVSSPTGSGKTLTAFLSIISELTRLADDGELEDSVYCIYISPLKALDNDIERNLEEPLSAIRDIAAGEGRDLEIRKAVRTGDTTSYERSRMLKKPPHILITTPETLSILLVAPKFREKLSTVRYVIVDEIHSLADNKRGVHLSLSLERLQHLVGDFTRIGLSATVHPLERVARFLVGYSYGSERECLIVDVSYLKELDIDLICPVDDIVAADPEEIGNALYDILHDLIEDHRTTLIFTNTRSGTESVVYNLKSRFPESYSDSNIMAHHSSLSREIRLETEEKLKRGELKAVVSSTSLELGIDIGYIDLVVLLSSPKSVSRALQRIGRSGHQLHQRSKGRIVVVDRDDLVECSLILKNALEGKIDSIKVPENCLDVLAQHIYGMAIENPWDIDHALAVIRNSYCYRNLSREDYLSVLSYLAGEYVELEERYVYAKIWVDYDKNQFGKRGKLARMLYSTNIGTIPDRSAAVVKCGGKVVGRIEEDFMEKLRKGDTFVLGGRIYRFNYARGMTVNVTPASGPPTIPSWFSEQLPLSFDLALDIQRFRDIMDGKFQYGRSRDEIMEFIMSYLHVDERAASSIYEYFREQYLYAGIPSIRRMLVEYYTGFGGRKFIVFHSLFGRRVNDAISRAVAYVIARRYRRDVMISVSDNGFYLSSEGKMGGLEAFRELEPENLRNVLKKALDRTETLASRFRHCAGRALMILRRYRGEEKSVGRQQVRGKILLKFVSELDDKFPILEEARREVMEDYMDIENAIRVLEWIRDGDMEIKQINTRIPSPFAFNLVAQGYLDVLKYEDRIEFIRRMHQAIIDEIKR

B1: partial fork-2 lacking the red lagging strand (dsDNA)
DNA 1: ATCGATAGTCTCTAGACAGTATGTCCTAGCAAGCCAGAATTCGGCAGCGT
DNA 2: GACGCTGCCGAATTCTGGCTTGCTATGTAAATCTTTGCCCACGTTGACCC
DNA 3: GGGTCAACGTGGGCAAAGATTTACA
modifications: 5' biotin on S18
  binding result: binds
